Experimental findings from the supplement of paper PMC9112550, “Optimization of the antimicrobial peptide Bac7 by deep mutational scanning” (BMC Biology, 2022) are described below.

For the data set, the system named is Escherichia coli TOP10. Nature of the data set: shrunken log2 fold change of peptide-encoding DNA abundance (4.5 h post-induction vs induction); higher = less antimicrobial activity (less host growth inhibition). The following applies: time post-induction: 4.5 h; library: site-saturation at positions 5, 18, 19, 20.
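Also: peptides expressed intracellularly from a pBAD plasmid library in pooled LB shake-flask culture, induced with 0.3% L-arabinose, DNA abundance read by NGS, three biological replicates, DESeq2 with apeglm shrinkage.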

In the case of RRIRRRPPRLPRPRPRPFAKPRP, the “shrunken log2 fold change” value came to 0.219.

In the case of RRIRWRPPRLPRPRPRPSDVPRP, the “shrunken log2 fold change” value is -0.545.

Turning to RRIRHRPPRLPRPRPRPTWLPRP, the “shrunken log2 fold change” value came to 0.326.

Regarding RRIRNRPPRLPRPRPRPIFEPRP, the “shrunken log2 fold change” value worked out at 0.0552.

Take RRIRERPPRLPRPRPRPITKPRP: the “shrunken log2 fold change” value was -0.107.

For RRIRVRPPRLPRPRPRPGEKPRP, the “shrunken log2 fold change” value is -0.186.

For RRIRERPPRLPRPRPRPTKHPRP, the “shrunken log2 fold change” value is -0.347.

As for RRIRYRPPRLPRPRPRPHGMPRP, the “shrunken log2 fold change” value was -0.922.

As for RRIRRRPPRLPRPRPRPYTMPRP, the “shrunken log2 fold change” value was -0.255.

For the sequence RRIRFRPPRLPRPRPRPIGLPRP, the “shrunken log2 fold change” value was -0.251.

RRIRRRPPRLPRPRPRPWELPRP: the “shrunken log2 fold change” value turned out to be 0.0522.

Consider RRIRPRPPRLPRPRPRPDTKPRP, for which the “shrunken log2 fold change” value is -0.0208.

On to RRIRIRPPRLPRPRPRPHGIPRP, for which the “shrunken log2 fold change” value is -0.0115.

As to RRIRIRPPRLPRPRPRPHCQPRP, the “shrunken log2 fold change” value is -0.173.

With RRIRPRPPRLPRPRPRPNSHPRP, the “shrunken log2 fold change” value was -0.521.

For the sequence RRIRERPPRLPRPRPRPLEHPRP, the “shrunken log2 fold change” value is -0.277.

Turning to RRIRDRPPRLPRPRPRPSQLPRP, the “shrunken log2 fold change” value was -0.633.

Regarding RRIRIRPPRLPRPRPRPEECPRP, the “shrunken log2 fold change” value was 0.0287.

For the sequence RRIRHRPPRLPRPRPRPYMQPRP, the “shrunken log2 fold change” value was -0.476.

In the case of RRIRKRPPRLPRPRPRPIEEPRP, the “shrunken log2 fold change” value stood at 0.566.

In the case of RRIRDRPPRLPRPRPRPQRSPRP, the “shrunken log2 fold change” value came out at 0.0502.

Turning to RRIRGRPPRLPRPRPRPTHMPRP, the “shrunken log2 fold change” value came to 0.745.

Consider RRIRTRPPRLPRPRPRPGDYPRP, for which the “shrunken log2 fold change” value amounted to 0.142.

Consider RRIRNRPPRLPRPRPRPMSTPRP, for which the “shrunken log2 fold change” value was -0.0292.

As for RRIRRRPPRLPRPRPRPNVVPRP, the “shrunken log2 fold change” value stood at 0.0745.

Regarding RRIRWRPPRLPRPRPRPMCYPRP, the “shrunken log2 fold change” value is -0.308.

RRIRWRPPRLPRPRPRPYIAPRP: the “shrunken log2 fold change” value was -0.825.

Consider RRIRWRPPRLPRPRPRPAEGPRP, for which the “shrunken log2 fold change” value came to 0.000853.

As for RRIRLRPPRLPRPRPRPRDYPRP, the “shrunken log2 fold change” value is -0.00546.

For the sequence RRIRGRPPRLPRPRPRPCAWPRP, the “shrunken log2 fold change” value amounted to 0.167.

With RRIRLRPPRLPRPRPRPCTGPRP, the “shrunken log2 fold change” value was -0.0081.

On to RRIRFRPPRLPRPRPRPSGMPRP, for which the “shrunken log2 fold change” value was -0.637.

As for RRIRTRPPRLPRPRPRPPDVPRP, the “shrunken log2 fold change” value is 0.176.

As to RRIRYRPPRLPRPRPRPVMLPRP, the “shrunken log2 fold change” value is -0.256.

Turning to RRIRIRPPRLPRPRPRPMDTPRP, the “shrunken log2 fold change” value amounted to 0.0627.

RRIRARPPRLPRPRPRPLIKPRP: the “shrunken log2 fold change” value worked out at 0.0844.

As to RRIRVRPPRLPRPRPRPMFFPRP, the “shrunken log2 fold change” value is -0.333.

Turning to RRIRFRPPRLPRPRPRPQPPPRP, the “shrunken log2 fold change” value came out at 0.94.

Consider RRIRNRPPRLPRPRPRPVHCPRP, for which the “shrunken log2 fold change” value was -0.123.

On to RRIRNRPPRLPRPRPRPGNIPRP, for which the “shrunken log2 fold change” value was -0.161.

With RRIRMRPPRLPRPRPRPFAQPRP, the “shrunken log2 fold change” value is 0.0306.

On to RRIRERPPRLPRPRPRPCTAPRP, for which the “shrunken log2 fold change” value is -0.337.

With RRIRVRPPRLPRPRPRPYCSPRP, the “shrunken log2 fold change” value is -0.0744.

In the case of RRIRDRPPRLPRPRPRPFSYPRP, the “shrunken log2 fold change” value is -0.22.

For the sequence RRIRKRPPRLPRPRPRPPCEPRP, the “shrunken log2 fold change” value turned out to be 0.509.

Take RRIRPRPPRLPRPRPRPLFHPRP: the “shrunken log2 fold change” value was -0.131.

On to RRIRARPPRLPRPRPRPEKCPRP, for which the “shrunken log2 fold change” value was -0.15.

In the case of RRIRWRPPRLPRPRPRPSAYPRP, the “shrunken log2 fold change” value was -0.549.

With RRIRMRPPRLPRPRPRPGMPPRP, the “shrunken log2 fold change” value turned out to be 0.522.

Take RRIRPRPPRLPRPRPRPTQQPRP: the “shrunken log2 fold change” value was 0.827.

In the case of RRIRMRPPRLPRPRPRPHFEPRP, the “shrunken log2 fold change” value was -0.0874.

Turning to RRIRGRPPRLPRPRPRPVQPPRP, the “shrunken log2 fold change” value was 0.95.

Turning to RRIRIRPPRLPRPRPRPMIEPRP, the “shrunken log2 fold change” value is -0.0216.

Turning to RRIRFRPPRLPRPRPRPCNMPRP, the “shrunken log2 fold change” value was -1.46.

RRIRTRPPRLPRPRPRPFAEPRP: the “shrunken log2 fold change” value is 0.0116.

Regarding RRIRKRPPRLPRPRPRPRRWPRP, the “shrunken log2 fold change” value came out at 0.717.

For the sequence RRIRIRPPRLPRPRPRPKKQPRP, the “shrunken log2 fold change” value was -0.194.

Regarding RRIRWRPPRLPRPRPRPDQHPRP, the “shrunken log2 fold change” value was -0.00431.

Take RRIRTRPPRLPRPRPRPCFLPRP: the “shrunken log2 fold change” value was -0.535.

For RRIRARPPRLPRPRPRPYTAPRP, the “shrunken log2 fold change” value was -0.0946.

On to RRIRERPPRLPRPRPRPAETPRP, for which the “shrunken log2 fold change” value worked out at 0.0123.

For RRIRFRPPRLPRPRPRPKWRPRP, the “shrunken log2 fold change” value was 0.413.

As to RRIRVRPPRLPRPRPRPVPGPRP, the “shrunken log2 fold change” value came to 0.0985.

As to RRIRNRPPRLPRPRPRPYMFPRP, the “shrunken log2 fold change” value is -0.216.

As for RRIRNRPPRLPRPRPRPKDIPRP, the “shrunken log2 fold change” value came out at 0.0127.

Consider RRIRWRPPRLPRPRPRPNGCPRP, for which the “shrunken log2 fold change” value was 0.0739.

Take RRIRNRPPRLPRPRPRPWPQPRP: the “shrunken log2 fold change” value was -0.064.

In the case of RRIRCRPPRLPRPRPRPESPPRP, the “shrunken log2 fold change” value amounted to 0.315.

Consider RRIRGRPPRLPRPRPRPVDQPRP, for which the “shrunken log2 fold change” value is 0.126.

RRIRKRPPRLPRPRPRPYQGPRP: the “shrunken log2 fold change” value is -0.231.

On to RRIRERPPRLPRPRPRPRGVPRP, for which the “shrunken log2 fold change” value stood at 0.309.

RRIRQRPPRLPRPRPRPRVLPRP: the “shrunken log2 fold change” value is -0.0985.

In the case of RRIRYRPPRLPRPRPRPLMFPRP, the “shrunken log2 fold change” value is -1.04.

On to RRIRNRPPRLPRPRPRPNNKPRP, for which the “shrunken log2 fold change” value is -0.63.

On to RRIRFRPPRLPRPRPRPSETPRP, for which the “shrunken log2 fold change” value was -0.13.

On to RRIRQRPPRLPRPRPRPIRAPRP, for which the “shrunken log2 fold change” value stood at 0.0231.

For RRIRQRPPRLPRPRPRPVEMPRP, the “shrunken log2 fold change” value is -0.101.

RRIRWRPPRLPRPRPRPRQYPRP: the “shrunken log2 fold change” value was -0.534.

Take RRIRRRPPRLPRPRPRPASPPRP: the “shrunken log2 fold change” value came to 0.314.

As for RRIRYRPPRLPRPRPRPGNPPRP, the “shrunken log2 fold change” value is -0.377.

Take RRIRWRPPRLPRPRPRPNKYPRP: the “shrunken log2 fold change” value was -0.481.

In the case of RRIRTRPPRLPRPRPRPVTEPRP, the “shrunken log2 fold change” value worked out at 0.0394.

With RRIRDRPPRLPRPRPRPEGQPRP, the “shrunken log2 fold change” value came to 1.15.

As for RRIRWRPPRLPRPRPRPNEIPRP, the “shrunken log2 fold change” value is 0.0563.

Consider RRIRKRPPRLPRPRPRPWADPRP, for which the “shrunken log2 fold change” value was -0.017.

For RRIRWRPPRLPRPRPRPPESPRP, the “shrunken log2 fold change” value was 0.225.

Regarding RRIRYRPPRLPRPRPRPSSTPRP, the “shrunken log2 fold change” value was -0.158.

For the sequence RRIRFRPPRLPRPRPRPQQLPRP, the “shrunken log2 fold change” value was -0.437.

Take RRIRTRPPRLPRPRPRPWIIPRP: the “shrunken log2 fold change” value is -0.228.

Take RRIRHRPPRLPRPRPRPPGKPRP: the “shrunken log2 fold change” value was -0.155.

Take RRIRTRPPRLPRPRPRPRHCPRP: the “shrunken log2 fold change” value is -0.0723.

Take RRIRARPPRLPRPRPRPSHFPRP: the “shrunken log2 fold change” value is -0.0734.

RRIRLRPPRLPRPRPRPRYEPRP: the “shrunken log2 fold change” value is -0.286.

With RRIRTRPPRLPRPRPRPPKAPRP, the “shrunken log2 fold change” value is 0.0856.

RRIRERPPRLPRPRPRPGCTPRP: the “shrunken log2 fold change” value is -0.169.

As to RRIRHRPPRLPRPRPRPDAGPRP, the “shrunken log2 fold change” value is -0.0143.

With RRIRGRPPRLPRPRPRPVWWPRP, the “shrunken log2 fold change” value stood at 0.997.

Consider RRIRGRPPRLPRPRPRPCWLPRP, for which the “shrunken log2 fold change” value was -0.0298.

On to RRIRRRPPRLPRPRPRPDCWPRP, for which the “shrunken log2 fold change” value came out at 0.676.

For the sequence RRIRDRPPRLPRPRPRPWTFPRP, the “shrunken log2 fold change” value was -0.22.

For the sequence RRIRIRPPRLPRPRPRPVVGPRP, the “shrunken log2 fold change” value came to 0.0233.

Regarding RRIRGRPPRLPRPRPRPGFQPRP, the “shrunken log2 fold change” value amounted to 0.157.

Take RRIRYRPPRLPRPRPRPFEEPRP: the “shrunken log2 fold change” value is -0.0344.

With RRIRRRPPRLPRPRPRPYWKPRP, the “shrunken log2 fold change” value amounted to 0.0393.

Regarding RRIRTRPPRLPRPRPRPNKLPRP, the “shrunken log2 fold change” value is -0.127.

Consider RRIRSRPPRLPRPRPRPSCSPRP, for which the “shrunken log2 fold change” value is -0.231.

On to RRIRIRPPRLPRPRPRPPTMPRP, for which the “shrunken log2 fold change” value was -0.0339.

Consider RRIRTRPPRLPRPRPRPDISPRP, for which the “shrunken log2 fold change” value is -0.038.

On to RRIRNRPPRLPRPRPRPTSNPRP, for which the “shrunken log2 fold change” value was -0.615.

In the case of RRIRVRPPRLPRPRPRPWPTPRP, the “shrunken log2 fold change” value turned out to be 0.266.

Regarding RRIRQRPPRLPRPRPRPTRWPRP, the “shrunken log2 fold change” value amounted to 0.561.

Consider RRIRPRPPRLPRPRPRPESYPRP, for which the “shrunken log2 fold change” value is -0.00116.

As to RRIRNRPPRLPRPRPRPHAFPRP, the “shrunken log2 fold change” value is -0.0636.

As to RRIRMRPPRLPRPRPRPGTHPRP, the “shrunken log2 fold change” value came out at 0.056.

Take RRIRGRPPRLPRPRPRPCPIPRP: the “shrunken log2 fold change” value is -0.0298.

Regarding RRIRDRPPRLPRPRPRPYFRPRP, the “shrunken log2 fold change” value was -0.318.

Consider RRIRKRPPRLPRPRPRPAESPRP, for which the “shrunken log2 fold change” value is 0.563.

On to RRIRSRPPRLPRPRPRPPSIPRP, for which the “shrunken log2 fold change” value amounted to 0.2.

In the case of RRIRYRPPRLPRPRPRPTIQPRP, the “shrunken log2 fold change” value was -1.09.

With RRIRLRPPRLPRPRPRPQKPPRP, the “shrunken log2 fold change” value was -0.272.

As to RRIRNRPPRLPRPRPRPGLVPRP, the “shrunken log2 fold change” value was 0.171.

Consider RRIRMRPPRLPRPRPRPYIMPRP, for which the “shrunken log2 fold change” value is -0.12.

Take RRIRRRPPRLPRPRPRPSFQPRP: the “shrunken log2 fold change” value is 0.0356.

On to RRIRQRPPRLPRPRPRPTNPPRP, for which the “shrunken log2 fold change” value was -0.175.

As to RRIRNRPPRLPRPRPRPQPCPRP, the “shrunken log2 fold change” value is 0.0582.
